Holding throughout (assay): global alanine scanning epitope mapping
The target of one assay is HC-1. Conditions: antibody at 1 μg/ml.
The next assay concerns the target HC84.26. Conditions: antibody at 1 μg/ml.
Another assay deals with HMAb HC-11. Conditions: antibody at 1 μg/ml.
In a further assay the target is HMAb CBH-5. Conditions: antibody at 1 μg/ml.
The next assay addresses HMAb 212.1.1. Conditions: antibody at 2 μg/ml.
A further assay has as its target HMAb CBH-7. Conditions: antibody at 1 μg/ml.

For the substance “H77C 1a recombinant E1E2 (from UniProt P27958) N548A”, the percent of parent in the assay with HC-1 worked out at 88 % WT; with HC84.26, 85 % WT; with HMAb HC-11, 70 % WT; with HMAb CBH-5 it was 51 % WT.

“H77C 1a recombinant E1E2 (from UniProt P27958) R639A”: the percent of parent came out at 100 % WT with HC-1; 87 % WT with HC84.26; 88 % WT with HMAb 212.1.1; 76 % WT with HMAb HC-11; 48 % WT with HMAb CBH-5; 86 % WT with HMAb CBH-7.

With “H77C 1a recombinant E1E2 (from UniProt P27958) S424A”, the percent of parent came to 53 % WT in the assay with HC-1; 75 % WT in the assay with HC84.26; 41 % WT with HMAb 212.1.1; 18 % WT in the assay with HMAb HC-11; 10 % WT in the assay with HMAb CBH-5; 163 % WT with HMAb CBH-7.

Take “H77C 1a recombinant E1E2 (from UniProt P27958) F442A”: the percent of parent with HMAb 212.1.1 turned out to be 148 % WT; with HMAb HC-11, 1 % WT; with HMAb CBH-5, 1 % WT; with HMAb CBH-7, 113 % WT.

As for “H77C 1a recombinant E1E2 (from UniProt P27958) N434A”, the percent of parent with HC-1 is 102 % WT; with HC84.26 it was 97 % WT; in the assay with HMAb 212.1.1, 18 % WT; with HMAb HC-11, 88 % WT; with HMAb CBH-5 it was 92 % WT.

For “H77C 1a recombinant E1E2 (from UniProt P27958) N532A”, the percent of parent with HC-1 worked out at 82 % WT; with HC84.26, 108 % WT; with HMAb 212.1.1 it was 152 % WT; with HMAb HC-11 it was 71 % WT; with HMAb CBH-5 it was 108 % WT; in the assay with HMAb CBH-7 it was 101 % WT.

As to “H77C 1a recombinant E1E2 (from UniProt P27958) E431A”, the percent of parent in the assay with HC-1 stood at 97 % WT; with HC84.26 it was 105 % WT; in the assay with HMAb 212.1.1 it was 147 % WT; in the assay with HMAb HC-11, 64 % WT; with HMAb CBH-5, 224 % WT; with HMAb CBH-7, 101 % WT.

Regarding “H77C 1a recombinant E1E2 (from UniProt P27958) D533A”, the percent of parent turned out to be 73 % WT in the assay with HC-1; 93 % WT in the assay with HC84.26; 99 % WT with HMAb 212.1.1; 66 % WT with HMAb HC-11; 54 % WT in the assay with HMAb CBH-5; 77 % WT with HMAb CBH-7.

For “H77C 1a recombinant E1E2 (from UniProt P27958) Y443A”, the percent of parent in the assay with HC-1 was 87 % WT; in the assay with HC84.26 it was 52 % WT; in the assay with HMAb 212.1.1, 158 % WT; with HMAb HC-11, 1 % WT; with HMAb CBH-5, 0 % WT; with HMAb CBH-7, 82 % WT.

Turning to “H77C 1a recombinant E1E2 (from UniProt P27958) W437A”, the percent of parent with HC-1 is 67 % WT; with HC84.26, 98 % WT; with HMAb 212.1.1, 58 % WT; with HMAb HC-11, 0 % WT; with HMAb CBH-5, 3 % WT.

As to “H77C 1a recombinant E1E2 (from UniProt P27958) W529A”, the percent of parent is 0 % WT with HC-1; 122 % WT with HC84.26; 9 % WT with HMAb 212.1.1; 23 % WT with HMAb HC-11; 35 % WT with HMAb CBH-5; 187 % WT with HMAb CBH-7.

As for “H77C 1a recombinant E1E2 (from UniProt P27958) S432A”, the percent of parent in the assay with HC84.26 worked out at 102 % WT; with HMAb 212.1.1 it was 108 % WT; in the assay with HMAb HC-11 it was 57 % WT; with HMAb CBH-5, 73 % WT; with HMAb CBH-7 it was 104 % WT.

In the case of “H77C 1a recombinant E1E2 (from UniProt P27958) L433A”, the percent of parent came out at 97 % WT in the assay with HC-1; 122 % WT in the assay with HC84.26; 2 % WT in the assay with HMAb 212.1.1; 103 % WT with HMAb HC-11; 128 % WT with HMAb CBH-5; 103 % WT with HMAb CBH-7.

On to “H77C 1a recombinant E1E2 (from UniProt P27958) G547A”, for which the percent of parent with HMAb 212.1.1 amounted to 57 % WT; with HMAb HC-11, 36 % WT; in the assay with HMAb CBH-5 it was 30 % WT; in the assay with HMAb CBH-7, 28 % WT.

Turning to “H77C 1a recombinant E1E2 (from UniProt P27958) T534A”, the percent of parent with HC-1 was 88 % WT; with HC84.26, 116 % WT; in the assay with HMAb 212.1.1 it was 162 % WT; in the assay with HMAb HC-11, 83 % WT; with HMAb CBH-5 it was 125 % WT; in the assay with HMAb CBH-7, 101 % WT.

Regarding “H77C 1a recombinant E1E2 (from UniProt P27958) T435A”, the percent of parent with HC-1 came out at 67 % WT; with HC84.26, 117 % WT; with HMAb 212.1.1, 86 % WT; with HMAb HC-11, 49 % WT; with HMAb CBH-5, 46 % WT; in the assay with HMAb CBH-7 it was 89 % WT.

Take “H77C 1a recombinant E1E2 (from UniProt P27958) G436A”: the percent of parent was determined as 73 % WT with HC-1; 103 % WT in the assay with HMAb 212.1.1; 0 % WT in the assay with HMAb HC-11; 11 % WT with HMAb CBH-5; 78 % WT with HMAb CBH-7.

Consider “H77C 1a recombinant E1E2 (from UniProt P27958) L441A”, for which the percent of parent with HC-1 is 85 % WT; in the assay with HC84.26 it was 12 % WT; in the assay with HMAb 212.1.1, 92 % WT; with HMAb HC-11, 75 % WT; with HMAb CBH-5 it was 0 % WT; in the assay with HMAb CBH-7, 100 % WT.

“H77C 1a recombinant E1E2 (from UniProt P27958) G530A”: the percent of parent with HC-1 was found to be 14 % WT; with HC84.26, 71 % WT; with HMAb 212.1.1 it was 9 % WT; in the assay with HMAb HC-11, 3 % WT; in the assay with HMAb CBH-5 it was 76 % WT.

As for “H77C 1a recombinant E1E2 (from UniProt P27958) L427A”, the percent of parent with HC-1 worked out at 51 % WT; with HC84.26 it was 100 % WT; in the assay with HMAb 212.1.1, 3 % WT; with HMAb HC-11, 26 % WT; with HMAb CBH-5, 6 % WT; with HMAb CBH-7, 370 % WT.

For “H77C 1a recombinant E1E2 (from UniProt P27958) L546A”, the percent of parent with HC-1 was 100 % WT; with HC84.26, 100 % WT; with HMAb 212.1.1, 139 % WT; with HMAb HC-11, 92 % WT; with HMAb CBH-5, 92 % WT; with HMAb CBH-7 it was 112 % WT.

For “H77C 1a recombinant E1E2 (from UniProt P27958) P544A”, the percent of parent with HMAb 212.1.1 was determined as 72 % WT; with HMAb HC-11, 41 % WT; with HMAb CBH-5, 45 % WT; with HMAb CBH-7 it was 39 % WT.

Take “H77C 1a recombinant E1E2 (from UniProt P27958) N428A”: the percent of parent with HC-1 was found to be 34 % WT; in the assay with HC84.26, 74 % WT; with HMAb 212.1.1, 15 % WT; with HMAb HC-11, 7 % WT; with HMAb CBH-5 it was 0 % WT; with HMAb CBH-7, 134 % WT.

On to “H77C 1a recombinant E1E2 (from UniProt P27958) P545A”, for which the percent of parent was found to be 78 % WT with HC-1; 69 % WT with HC84.26; 70 % WT with HMAb 212.1.1; 42 % WT with HMAb HC-11; 42 % WT with HMAb CBH-5; 42 % WT in the assay with HMAb CBH-7.

As for “H77C 1a recombinant E1E2 (from UniProt P27958) A426G”, the percent of parent with HC-1 came out at 35 % WT; with HC84.26, 88 % WT; with HMAb 212.1.1 it was 8 % WT; in the assay with HMAb HC-11, 23 % WT; with HMAb CBH-5, 0 % WT; with HMAb CBH-7, 253 % WT.

Take “H77C 1a recombinant E1E2 (from UniProt P27958) L438A”: the percent of parent in the assay with HC-1 came out at 77 % WT; with HC84.26, 122 % WT; with HMAb 212.1.1, 87 % WT; with HMAb HC-11, 1 % WT; in the assay with HMAb CBH-5, 4 % WT; in the assay with HMAb CBH-7, 89 % WT.

Regarding “H77C 1a recombinant E1E2 (from UniProt P27958) D535A”, the percent of parent in the assay with HC-1 was found to be 14 % WT; with HMAb 212.1.1, 6 % WT; with HMAb HC-11, 1 % WT; with HMAb CBH-5, 0 % WT; in the assay with HMAb CBH-7, 116 % WT.

Consider “H77C 1a recombinant E1E2 (from UniProt P27958) V636A”, for which the percent of parent was 89 % WT with HC-1; 72 % WT with HC84.26; 77 % WT with HMAb 212.1.1; 63 % WT in the assay with HMAb HC-11; 34 % WT with HMAb CBH-5.

For “H77C 1a recombinant E1E2 (from UniProt P27958) W549A”, the percent of parent is 66 % WT with HMAb 212.1.1, 50 % WT in the assay with HMAb HC-11, 46 % WT in the assay with HMAb CBH-5 and 5 % WT in the assay with HMAb CBH-7.

For “H77C 1a recombinant E1E2 (from UniProt P27958) E637A”, the percent of parent in the assay with HC-1 was determined as 246 % WT; with HMAb HC-11, 202 % WT; in the assay with HMAb CBH-5, 40 % WT; with HMAb CBH-7 it was 145 % WT.

With “H77C 1a recombinant E1E2 (from UniProt P27958) G440A”, the percent of parent was determined as 73 % WT with HC-1; 82 % WT with HC84.26; 83 % WT in the assay with HMAb 212.1.1; 86 % WT with HMAb CBH-5; 77 % WT in the assay with HMAb CBH-7.

As to “H77C 1a recombinant E1E2 (from UniProt P27958) N430A”, the percent of parent with HC-1 is 39 % WT; with HC84.26 it was 85 % WT; with HMAb 212.1.1, 143 % WT; with HMAb CBH-7 it was 155 % WT.

In the case of “H77C 1a recombinant E1E2 (from UniProt P27958) A439G”, the percent of parent was determined as 83 % WT with HC-1, 108 % WT with HC84.26, 84 % WT with HMAb 212.1.1 and 53 % WT with HMAb CBH-5.

For the origin of these results see publication PMC6542541, “Broadly neutralizing antibodies from an individual that naturally cleared multiple hepatitis C virus infections uncover molecular determinants for E2 targeting and vaccine design” (PLoS Pathogens, 2019).
